# Values of other authors as cited in article PMC7246992.
# Like-named read-outs stand apart in the source and are kept apart here.
# Columns and labels:
# [1] = molecular target: linear ubiquitin (Homo sapiens) (UniProt P0CG48)
# [2] = molecular target: linear ubiquitin (Homo sapiens) (UniProt P0CG48); remark: listed apart in the source
# Sequence of optineurin UBAN (Q96CV9 416-510): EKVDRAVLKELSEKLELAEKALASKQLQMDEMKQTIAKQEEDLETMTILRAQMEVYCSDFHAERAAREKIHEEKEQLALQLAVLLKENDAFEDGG
# Sequence of A20 ZF7 (P21580 756-790): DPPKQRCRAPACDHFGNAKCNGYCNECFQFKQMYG
Substance,Kd [1],Kd [2]
A20 ZF7 (from UniProt P21580),9 µM,
optineurin UBAN (from UniProt Q96CV9),,1 µM
